Reference: paper PMC6430810 (2019)

Key:
[1] = target: T1, human 4EHP (residues 45-234) for ITC (human, UniProt O60573 45-234); assay: ITC
T1 chain: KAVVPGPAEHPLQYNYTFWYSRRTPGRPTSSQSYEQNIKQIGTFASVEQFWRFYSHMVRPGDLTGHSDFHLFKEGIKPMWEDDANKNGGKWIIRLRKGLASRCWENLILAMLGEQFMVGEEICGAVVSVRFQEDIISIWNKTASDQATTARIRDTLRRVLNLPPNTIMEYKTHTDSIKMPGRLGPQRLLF

[2] = target: T1, human 4EHP (residues 45-234) for ITC; assay: ITC; VP-ITC, 25 °C; TRS (1-74, 0.6 mM) in the syringe titrated against 4EHP (45-234, 0.035 mM); single binding site model

Ka [1]: 403000 M⁻¹
Kd [2]: 2480 nM
stoichiometry N [2]: 1
B1: human TRS UNE-T (residues 1-74) with C-terminal His tag (domain or fragment)
chain: MFEEKASSPSGKMGGEEKPIGAGEEKQKEGGKKKNKEGSGDGGRAELNPWPEYIYTRLEMYNILKAEHDSILAE
